Laboratory results: PMC11352577

Assays:
[1] = target: CD64 (FcγRI) on human primary monocytes and monocyte-derived macrophages (human (endogenous in primary monocytes)) (UniProt P12314)
[2] = target: human KIR3DL1 extracellular domains fused to mouse IgG2a Fc with Avi tag, biotinylated (human) (UniProt P43629); test: SPR; Biacore T200; biotinylated KIR3DL1 immobilised; IOS-1002 as analyte; HBS-EP, 25 °C; steady-state fits, averaged
[3] = target: human KIR3DL1 extracellular domains fused to mouse IgG2a Fc with Avi tag, biotinylated (human) (UniProt P43629); test: SPR; Biacore T200; biotinylated receptors immobilised on Series S CAP chip; IOS-1002 as analyte, 5 concentrations 6 to 0.375 uM; HBS-EP, 25 °C; 1:1 fit

UniProt P43629, sequence (P43629 22-340): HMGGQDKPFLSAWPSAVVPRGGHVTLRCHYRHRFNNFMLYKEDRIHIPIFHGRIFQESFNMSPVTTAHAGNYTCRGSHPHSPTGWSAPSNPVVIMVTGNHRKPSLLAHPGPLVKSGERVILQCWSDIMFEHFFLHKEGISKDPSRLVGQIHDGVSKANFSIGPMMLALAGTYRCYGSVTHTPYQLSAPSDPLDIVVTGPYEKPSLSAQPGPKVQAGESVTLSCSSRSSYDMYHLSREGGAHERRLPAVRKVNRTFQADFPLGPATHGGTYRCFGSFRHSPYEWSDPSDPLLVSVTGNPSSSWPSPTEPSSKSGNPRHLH
UniProt P12314, sequence (P12314 16-374): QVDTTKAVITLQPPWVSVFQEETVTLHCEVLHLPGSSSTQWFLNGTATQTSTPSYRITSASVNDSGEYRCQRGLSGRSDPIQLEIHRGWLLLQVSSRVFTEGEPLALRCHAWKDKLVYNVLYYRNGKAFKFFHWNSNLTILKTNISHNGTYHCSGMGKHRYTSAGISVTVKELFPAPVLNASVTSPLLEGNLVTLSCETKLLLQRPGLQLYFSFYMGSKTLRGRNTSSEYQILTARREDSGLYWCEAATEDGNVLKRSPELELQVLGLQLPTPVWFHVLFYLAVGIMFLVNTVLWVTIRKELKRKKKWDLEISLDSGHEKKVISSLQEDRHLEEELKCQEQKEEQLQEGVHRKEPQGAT

macrophage phagocytosis of H460 cells, dose response (EC50) [1]: 0.00333 µM
Kd [2]: 7.48 µM
Kd [3]: 3.28 µM
Substance: IOS-1002 (HLA-B57^(A46E/V97R).B2m-IgG4_Fc) (from UniProt P61769 21-119) (Fc fusion)
